Assay results: publication PMC5143173

What was measured:
AIF H454A (human) = AIF H454A (human) (UniProt O95831); assay: SAXS
AIF S480A (human) = AIF S480A (human) (UniProt O95831); assay: SAXS

stoichiometry N (AIF H454A (human)) | stoichiometry N (AIF S480A (human)) | Substance
2 | – | AIF H454A (from UniProt O95831 78-613) (domain or fragment)
– | 2 | AIF S480A (from UniProt O95831 78-613) (domain or fragment)
